# Where a chain is given by its changes, count along the chain named. Names and notes keep the numbering of the source.
# B1: UGT 2B7 (Homo sapiens) (protein)
# chain: GKVLVWAAEYSHWMNIKTILDELIQRGHEVTVLASSASILFDPNNSSALKIEIYPTSLTKTELENFIMQQIKRWSDLPKDTFWLYFSQVQEIMSIFGDITRKFCKDVVSNKKFMKKVQESRFDVIFADAIFPCSELLAELFNIPFVYSLSFSPGYTFEKHSGGFIFPPSYVPVVMSELTDQMTFMERVKNMIYVLYFDFWFEIFDMKKWDQFYSEVLGRPTTLSETMGKADVWLIRNSWNFQFPYPLLPNVDFVGGLHCKPAKPLPKEMEDFVQSSGENGVVVFSLGSMVSNMTEERANVIASALAQIPQKVLWRFDGNKPDTLGLNTRLYKWIPQNDLLGHPKTRAFITHGGANGIYEAIYHGIPMVGIPLFADQPDNIAHMKARGAAVRVDFNTMSSTDLLNALKRVINDPSYKENVMKLSRIQHDQPVKPLDRAVFWIEFVMRHKGAKHLRVAAHDLTWFQYHSLDVIGFLLVCVATVIFIVTKCCLFCFWKFARKAKKGKND
# B2: UGT 1A10 (Homo sapiens) (protein)
# chain: GKLLVVPMDGSHWFTMQSVVEKLILRGHEVVVVMPEVSWQLERSLNCTVKTYSTSYTLEDQNREFMVFAHAQWKAQAQSIFSLLMSSSSGFLDLFFSHCRSLFNDRKLVEYLKESSFDAVFLDPFDTCGLIVAKYFSLPSVVFTRGIFCHHLEEGAQCPAPLSYVPNDLLGFSDAMTFKERVWNHIVHLEDHLFCQYLFRNALEIASEILQTPVTAYDLYSHTSIWLLRTDFVLDYPKPVMPNMIFIGGINCHQGKPLPMEFEAYINASGEHGIVVFSLGSMVSEIPEKKAMAIADALGKIPQTVLWRYTGTRPSNLANNTILVKWLPQNDLLGHPMTRAFITHAGSHGVYESICNGVPMVMMPLFGDQMDNAKRMETKGAGVTLNVLEMTSEDLENALKAVINDKSYKENIMRLSSLHKDRPVEPLDLAVFWVEFVMRHKGAPHLRPAAHDLTWYQYHSLDVIGFLLAVVLTVAFITFKCCAYGYRKCLGKKGRVKKAHKSKTH
# B3: SULT1A1*1 (Homo sapiens) (protein)
# chain: MELIQDTSRPPLEYVKGVPLIKYFAEALGPLQSFQARPDDLLISTYPKSGTTWVSQILDMIYQGGDLEKCHRAPIFMRVPFLEFKAPGIPSGMETLKDTPAPRLLKTHLPLALLPQTLLDQKVKVVYVARNAKDVAVSYYHFYHMAKVHPEPGTWDSFLEKFMVGEVSYGSWYQHVQEWWELSRTHPVLYLFYEDMKENPKREIQKILEFVGRSLPEETVDFVVQHTSFKEMKKNPMTNYTTVPQEFMDHSISPFMRKGMAGDWKTTFTVAQNERFDADYAEKMAGCSLSFRSEL
# B4: SULT1A1*2 (Homo sapiens; R213H) (protein)
# chain: B3 chain with R213H
# B5: UGT 1A8 (Homo sapiens) (protein)
# chain: GKLLVVPMDGSHWFTMQSVVEKLILRGHEVVVVMPEVSWQLGKSLNCTVKTYSTSYTLEDLDREFMDFADAQWKAQVRSLFSLFLSSSNGFFNLFFSHCRSLFNDRKLVEYLKESSFDAVFLDPFDACGLIVAKYFSLPSVVFARGIACHYLEEGAQCPAPLSYVPRILLGFSDAMTFKERVRNHIMHLEEHLFCQYFSKNALEIASEILQTPVTAYDLYSHTSIWLLRTDFVLDYPKPVMPNMIFIGGINCHQGKPLPMEFEAYINASGEHGIVVFSLGSMVSEIPEKKAMAIADALGKIPQTVLWRYTGTRPSNLANNTILVKWLPQNDLLGHPMTRAFITHAGSHGVYESICNGVPMVMMPLFGDQMDNAKRMETKGAGVTLNVLEMTSEDLENALKAVINDKSYKENIMRLSSLHKDRPVEPLDLAVFWVEFVMRHKGAPHLRPAAHDLTWYQYHSLDVIGFLLAVVLTVAFITFKCCAYGYRKCLGKKGRVKKAHKSKTH
# B6: UGT 1A9 (Homo sapiens) (protein)
# chain: GKLLVVPMDGSHWFTMRSVVEKLILRGHEVVVVMPEVSWQLGRSLNCTVKTYSTSYTLEDLDREFKAFAHAQWKAQVRSIYSLLMGSYNDIFDLFFSNCRSLFKDKKLVEYLKESSFDAVFLDPFDNCGLIVAKYFSLPSVVFARGILCHYLEEGAQCPAPLSYVPRILLGFSDAMTFKERVRNHIMHLEEHLLCHRFFKNALEIASEILQTPVTEYDLYSHTSIWLLRTDFVLDYPKPVMPNMIFIGGINCHQGKPLPMEFEAYINASGEHGIVVFSLGSMVSEIPEKKAMAIADALGKIPQTVLWRYTGTRPSNLANNTILVKWLPQNDLLGHPMTRAFITHAGSHGVYESICNGVPMVMMPLFGDQMDNAKRMETKGAGVTLNVLEMTSEDLENALKAVINDKSYKENIMRLSSLHKDRPVEPLDLAVFWVEFVMRHKGAPHLRPAAHDLTWYQYHSLDVIGFLLAVVLTVAFITFKCCAYGYRKCLGKKGRVKKAHKSKTH
# B7: UGT 1A3 (Homo sapiens) (protein)
# chain: GKVLVVPIDGSHWLSMREVLRELHARGHQAVVLTPEVNMHIKEENFFTLTTYAISWTQDEFDRHVLGHTQLYFETEHFLKKFFRSMAMLNNMSLVYHRSCVELLHNEALIRHLNATSFDVVLTDPVNLCAAVLAKYLSIPTVFFLRNIPCDLDFKGTQCPNPSSYIPRLLTTNSDHMTFMQRVKNMLYPLALSYICHAFSAPYASLASELFQREVSVVDILSHASVWLFRGDFVMDYPRPIMPNMVFIGGINCANRKPLSQEFEAYINASGEHGIVVFSLGSMVSEIPEKKAMAIADALGKIPQTVLWRYTGTRPSNLANNTILVKWLPQNDLLGHPMTRAFITHAGSHGVYESICNGVPMVMMPLFGDQMDNAKRMETKGAGVTLNVLEMTSEDLENALKAVINDKSYKENIMRLSSLHKDRPVEPLDLAVFWVEFVMRHKGAPHLRPAAHDLTWYQYHSLDVIGFLLAVVLTVAFITFKCCAYGYRKCLGKKGRVKKAHKSKTH
# B8: UGT 1A1 (Homo sapiens) (protein)
# chain: HAGKILLIPVDGSHWLSMLGAIQQLQQRGHEIVVLAPDASLYIRDGAFYTLKTYPVPFQREDVKESFVSLGHNVFENDSFLQRVIKTYKKIKKDSAMLLSGCSHLLHNKELMASLAESSFDVMLTDPFLPCSPIVAQYLSLPTVFFLHALPCSLEFEATQCPNPFSYVPRPLSSHSDHMTFLQRVKNMLIAFSQNFLCDVVYSPYATLASEFLQREVTVQDLLSSASVWLFRSDFVKDYPRPIMPNMVFVGGINCLHQNPLSQEFEAYINASGEHGIVVFSLGSMVSEIPEKKAMAIADALGKIPQTVLWRYTGTRPSNLANNTILVKWLPQNDLLGHPMTRAFITHAGSHGVYESICNGVPMVMMPLFGDQMDNAKRMETKGAGVTLNVLEMTSEDLENALKAVINDKSYKENIMRLSSLHKDRPVEPLDLAVFWVEFVMRHKGAPHLRPAAHDLTWYQYHSLDVIGFLLAVVLTVAFITFKCCAYGYRKCLGKKGRVKKAHKSKTH
# Columns and labels:
# [1] = substrate: Cc1c(Cl)c(C)[n+]([O-])c(Cl)c1-c1noc(-c2cc(O)c(O)c([N+](=O)[O-])c2)n1; test: cells, lysate or membranes named; format: in vitro ADME, human; details: pH 7.5; 37.0 °C
# not read = substrate: Cc1c(Cl)c(C)[n+]([O-])c(Cl)c1-c1noc(-c2cc(O)c(O)c([N+](=O)[O-])c2)n1; test: not read; format: in vitro ADME, human; details: other: substrate inhibition fit; pH 7.4; 37.0 °C
protein,measurement,setting,value
B1,Km,[1],20.6 µM
B2,Km,[1],64.9 ± 23.8 µM
B3,Km,not read,18.7 µM
B4,Km,not read,27.3 µM
B5,Km,[1],34.8 ± 9.6 µM
B6,Km,[1],13.7 µM
B7,Km,[1],213 µM
B8,Km,[1],18 µM

# — paper PMC8929358
